Data set [1] concerns platelet surface P-selectin. As to the kind of experiment: Flow cytometry, platelet surface P-selectin. Type of data set: cell-based, human. To be noted: for inhibition of sulfatide induced activation (surface P-selectin): ADP 30 μM, sulfatide liposomes 50 μg/mL. The procedure:
Washed platelets (2.5×10^5 platelets/μL) were kept unactivated or either activated with ADP (30 μM) or TRAP (10 μM). Both unactivated and activated platelets were incubated for 10 min at 23° C. with liposomes (50 μg/mL) either without (liposomes control) or with sulfatides, and N-PTB constructs (1 μM). Reactions were fixed with 1% formalin and incubated with PE- labeled CD62p anti-P-selectin (BioLegend) or FITC-labeled PAC-1 anti-integrin receptor (BD Transduction) antibodies. Bound antibodies were quantified using a FacsAria flow cytometer.
Once present, P-selectin is able to interact with sulfatides which triggers an internal phosphorylation pathway thought to be mediated by p38 (FIG. 12A) (Merten 2005). This cascade results in further de-granulation and an increase in surface P-selectin (Merten 2005). To monitor the de-granulation of platelets, two activation markers were evaluated using fluorescent antibodies specific for P-selectin and the αIIbβ3 integrin. Marker surface expression was quantified using fluorescence-activated cell sorting (FACS) analysis, and measuring the median fluorescent signal of 10,000 platelets. The median signal was used as our reference to quantify the data set as median values are less affected by the wide range of platelet signals and is therefore more representative of the population. When platelets were stimulated with ADP (30 μM) they show increases in both surface P-selecting and αIIbβ3 integrin expression. In the presence of sulfatides (50 μg/mL), in the form of enriched liposomes, the levels of P-selectin and αIIbβ3 integrin were further increased to about 20-25 fold their un-stimulated levels (FIG. 12B). […] The levels of P-selectin and αIIbβ3 integrin were measured among several different individuals and the levels varied greatly between them; however; consistently, sulfatides induced a ˜20 fold increase over un-stimulated platelets and a ˜10 fold increase over ADP stimulated platelets.

Data set [2] is described as follows: CD spectroscopy, secondary structure composition. It is filed as physicochemical. To be noted: 5 μM construct, DICHROWEB/CDSSTR. The procedure: Spectra were collected using a Jasco J-720 spectropolarimeter. Far-UV CD spectra were measured for Dab2 PTB constructs (5 μM in 5 mM Tris, 100 mM potassium fluoride, 100 μM DTT, pH 6.8) using a 1 mm-slit-width cuvette. Five accumulated scans were recorded for each sample between 190 and 260 nm at 20° C. in increments of 0.5 nm. Background of buffer alone was subtracted from each spectrum. Raw data were converted to mean residue ellipticity and analyzed for secondary structure composition using DICHROWEB and deconvoluted using CDSSTR.

B1: N-PTB: N-terminal phosphotyrosine binding domain (residues 1-241) of human Disabled-2 (Dab2), expressed as GST-fusion in E. coli (protein)
chain: MSNEVETSATNGQPDQQAAPKAPSKKEKKKGPEKTDEYLLARFKGDGVKYKAKLIGIDDVPDARGDKMSQDSMMKLKGMAARGRSQGQHKQRIWVNISLSGIKIIDEKTGVIEHEHPVNKISFIARDVTDNRAFGYVCGGEGQHQFFAIKTGQQAEPLVVDLKDLFQVIYNVKKKEEEKKKIEEASKAVENGSEALMILDDQTNKLKSGVDQMDLFGDMSTPPDLNSPTESKDILLVDLNS
With B1, in data set [1], the “inhibition of sulfatide induced activation (surface P-selectin)” value is listed as “remained at ADP stimulated levels”. In addition, the “inhibition of sulfatide induced activation (surface P-selectin)” value in data set [1] (listed as N-PTB^4M) is listed as “no inhibition of sulfatide induced activation”. The IC50 in data set [1] (titration 1 nM-1 μM, ADP stimulated platelets, logarithmic curve fit, read-out: IC50, inhibition of sulfatide induced P-selectin marker expression) is 121 nM. Moreover, in data set [2], the “Helix 1” value turned out to be 8%, the “Helix 2” value is recorded as 10%, the “Strand 1” value is 17% and the “Strand 2” value is reported as 10%. In data set [2], this molecule registered a Turns of 23% and an Unordered of 31%.
